Changes are numbered by the printed parent chain.

Assay [1] has as its target T1, human EGFR on tumor cells (human, UniProt P00533 25-1210).
T1 construct: whole, on cells; also called EGFR on A431 cells
Nature of the assay: flow cytometry on HCT 116 tumor cells, detection with anti-DARPin antibodies. Here is the method:
(§1) The determination of CD3 binding was performed with human CD3 on Jurkat cells, and binding to hEGFR on cells with HCT116 tumor cells, using Flow Cytometer Attune Nxt. A titration of prodrug DARPin molecules was incubated with 200′000 cells per well (for both Jurkat and HCT116 cells) for 30 min at 4° C. After washing, CD3 binding of DARPin® molecule was detected by 1:1000-diluted anti-DARPin® Antibody-Mix (1 h incubation at 4° C.) with the corresponding secondary antibody anti-rabbit IgG Alexa Fluor 488 (30 min incubation at 4° C.), which was added after washing off excess anti-DARPin Antibodies. Cells were subsequently washed and stained for livedead (aqua, 1:1000, thermofisher) and resuspended in Cytofix fixation buffer (BD Biosciences). Median of mean fluorescence intensities of Alexa Fluor 488 binding on live cells were measured by Flow Cytometry and data was plotted using GraphPad Prism 8.
For orientation: In flow cytometry, cells or beads pass a laser one at a time.

The target in assay [2] is T2, human CD3 on T cells (human, UniProt P07766 23-207; P09693 23-182; P04234 22-171). The experiment in a line: cell-based or functional assay.
Assay [3] concerns the target T2, human CD3 on T cells. The experiment in a line: cell-based or functional assay. The source holds these as a separate data set.
In assay [4] the target is T2, human CD3 on T cells. Nature of the assay: flow cytometry on Jurkat cells, detection with anti-DARPin antibodies. Here is the method: as §1
Assay [5] concerns the target T1, human EGFR on tumor cells. Nature of the assay: cell-based or functional assay.
In assay [6] the target is T1, human EGFR on tumor cells. Nature of the assay: cell-based or functional assay. This is another data set of the same source.
The target in assay [7] is T2, human CD3 on T cells. Nature of the assay: flow cytometry on Jurkat cells, detection with anti-DARPin antibodies and anti-rabbit IgG Alexa Fluor 488, MFI [column T-cell binding]. Here is the method: as §1
Assay [8] addresses T3, recombinant human EGFR extracellular domain (human, UniProt P00533 25-645).
T3 construct: range 25-645; The range L25-S645 is stated for the ECD used in the selection; the SPR analyte is printed as hEGFR / recombinant human EGFR ECD; also called hEGFR; human EGFR ECD
Nature of the assay: SPR (ProteOn XPR36); biotinylated DARPin captured on NLC chip, EGFR ECD as analyte; 1:1 Langmuir fit. Here is the method: (§2) All SPR measurements were performed using a ProteOn™ XPR36 Protein Interaction Array System (Bio-Rad). […] PBS pH7.4 containing 0.005% Tween-20 (Sigma) was used as flow buffer, which was additionally supplemented with 1 mg/ml BSA in the case of mEGFR target. A three-fold dilution series from 0.74 nM to 60 nM of hEGFR or mEGFR was injected for 180 s at a flow rate of 100 ul/min, and dissociation was recorded for 1800 s. The captured DARPin molecules were regenerated by a single pulse of 10 mM glycine-HCl, pH 2.5+1M NaCl. The data was double-referenced using the interspots (surface reference) and a blank injection (buffer reference). Each individual dilution-set was fitted to the Langmuir-1:1-model.

Assay [9] deals with T4, recombinant mouse EGFR extracellular domain (mouse, UniProt Q01279 25-647).
T4 construct: extracellular domain; Bought protein; also called mEGFR; mouse EGFR ECD
The assay is described as above. Here is the method:
as §2

The target in assay [10] is T5, CD3-specific binding domain C7v14.
T5 construct: Used as analyte in SPR; also called hC22_88B02v14
T5 chain: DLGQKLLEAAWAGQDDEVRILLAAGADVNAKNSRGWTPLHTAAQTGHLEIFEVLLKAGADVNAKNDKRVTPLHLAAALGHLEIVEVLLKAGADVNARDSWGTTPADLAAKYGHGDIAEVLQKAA
Nature of the assay: SPR (ProteOn XPR36), biotinylated Binder captured on NLC neutravidin chip as ligand, CD3-specific binding domain as analyte, PBS-T, 25 C; KD from kon/koff. From the text:
(§3) An important feature of a binding moiety of the invention is its affinity towards a drug molecule. Relevant aspects include the off-rate of the binding moiety from the drug molecule and the resulting blocking half-life. Surface plasmon resonance (SPR) assays were used to determine the binding affinity of ankyrin repeat binding domains to the CD3 binding domain of a TCE drug molecule. AN SPR data was generated using a Bio-Rad ProteOn XPR36 instrument with PBS-T (0.005% Tween 20) as running buffer. A new neutravidin sensor chip (NLC) was air-initialized and conditioned according to Bio-Rad manual.

For assay [11], the target named is T6, CD3-specific binding domain C7v118.
T6 construct: Used as analyte in SPR; also called hC22_88B02v118
T6 chain: T5 chain with I20E, A23K, N32D, R34Q, N65D, R68G, R97Q, G114E
The description is as above.
Excerpt: as §3

The target of assay [12] is T7, CD3-specific binding domain C7v122.
T7 construct: Used as analyte in SPR; also called hC22_88B02v122
T7 chain: T5 chain with I20E, A23K, G114Q
The assay is described as above.
Excerpt: as §3

Assay [13] addresses T8, CD3-specific binding domain C7v119.
T8 construct: Used as analyte in SPR; also called hC22_88B02v119
T8 chain: T5 chain with I20E, A23K, N65D, R68G, R97Q, G114E
The description is as above.
Excerpt: as §3

Assay [14] deals with T9, CD3-specific binding domain C7v127.
T9 construct: Used as analyte in SPR; also called hC22_88B02v127
T9 chain: T5 chain with D15L, A23K, N65T, D66N, S99T, G114R
The experiment in a line: SPR (ProteOn XPR36), biotinylated Binder on NLC chip, CD3-specific binding domain as analyte, 25 C.
Excerpt: as §3

For assay [15], the target named is T5, CD3-specific binding domain C7v14. The experiment in a line: SPR (ProteOn XPR36), biotinylated Binder captured on NLC neutravidin chip as ligand, CD3-specific binding domain as analyte, PBS-T, 25 C; KD by equilibrium fitting.
Excerpt: as §3

Assay [16] addresses T6, CD3-specific binding domain C7v118. The assay is described as above.
Excerpt: as §3

For assay [17], the target named is T7, CD3-specific binding domain C7v122. Described as above.
Excerpt: as §3

The target of assay [18] is T8, CD3-specific binding domain C7v119. The description is as above.
Excerpt: as §3

T2 sequence (P07766 23-207, chain 1 of 3): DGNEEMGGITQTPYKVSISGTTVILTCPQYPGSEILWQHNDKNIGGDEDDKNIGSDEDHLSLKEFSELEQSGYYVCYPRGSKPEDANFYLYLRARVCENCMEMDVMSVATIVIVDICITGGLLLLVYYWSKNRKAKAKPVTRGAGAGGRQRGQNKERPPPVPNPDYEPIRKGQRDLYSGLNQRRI
T2 sequence (P09693 23-182, chain 2 of 3): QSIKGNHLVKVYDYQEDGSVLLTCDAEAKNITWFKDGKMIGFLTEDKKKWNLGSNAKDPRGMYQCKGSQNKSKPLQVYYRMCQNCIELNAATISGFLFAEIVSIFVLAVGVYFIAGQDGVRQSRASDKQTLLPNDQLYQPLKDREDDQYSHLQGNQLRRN
T2 sequence (P04234 22-171, chain 3 of 3): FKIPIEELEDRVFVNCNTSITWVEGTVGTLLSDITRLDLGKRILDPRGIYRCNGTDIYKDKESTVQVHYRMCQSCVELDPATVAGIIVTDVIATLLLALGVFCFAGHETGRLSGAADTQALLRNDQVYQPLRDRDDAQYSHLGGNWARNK

B1: Active TCE EGFR-C7v119-6His (designed binder)
chain: MGSDLGYKLLRAAFHGQDDEVRILLAAGADVNAKDLIGQTPLHNAAWVGHLEIVEVLLKAGADVNAKDYYGNTPLHLAAHDGHLEIVEVLLKAGADVNAQDTWGETPADLATNAGHEDIAEVLQKAAGSPTPTPTTPTPTPTTPTPTPTGSDLGQKLLEAAWAGQDDEVRELLKAGADVNAKNSRGWTPLHTAAQTGHLEIFEVLLKAGADVNAKDDKGVTPLHLAAALGHLEIVEVLLKAGADVNAQDSWGTTPADLAAKYGHEDIAEVLQKAAGSHHHHHH
notes: Bispecific ankyrin repeat protein; also called active TCE (C7v119 comprising construct); anti-EGFR x anti-CD3
As usually defined, the EC50 is the concentration that produces a half-maximal response. B1 had an EC50 in [1] of 0.427 nM. Further, the “tumor cell killing EC50 (LDH release), HCT 116 tumor cells and pan T-cells” value in [2] came out at 0.0074 nM. For the same molecule, in [3], the “T-cell activation EC50, HCT 116 tumor cells and pan T-cells” value came to 0.0108 nM; the “tumor cell killing EC50, HCT 116 tumor cells and pan T-cells” value amounted to 0.0185 nM. The molecule also returned an EC50 in assay [4] above 10 nM.

B2: Active TCE EGFR-C7v122-6His (designed binder)
chain: B1 chain with D216N, G219R, Q248R, E265Q
notes: Bispecific ankyrin repeat protein; also called active TCE (C7v122 comprising construct); anti-EGFR x anti-CD3
B2 came in with an EC50 in assay [1] of 0.518 nM. For the same molecule, in [2], the “tumor cell killing EC50 (LDH release), HCT 116 tumor cells and pan T-cells” value is 0.0022 nM. In assay [3], the “T-cell activation EC50, HCT 116 tumor cells and pan T-cells” value was 0.0068 nM; the “tumor cell killing EC50, HCT 116 tumor cells and pan T-cells” value came to 0.0072 nM. In [4], it took 7.9 nM to reach a half-maximal effect (EC50).

B3: CD3-PDD NCL EGFR-C7v14-[NCL2]-06E05v05-6His (designed binder)
chain: MGSDLGYKLLRAAFHGQDDEVRILLAAGADVNAKDLIGQTPLHNAAWVGHLEIVEVLLKAGADVNAKDYYGNTPLHLAAHDGHLEIVEVLLKAGADVNAQDTWGETPADLATNAGHEDIAEVLQKAAGSPTPTPTTPTPTPTTPTPTPTGSDLGQKLLEAAWAGQDDEVRILLAAGADVNAKNSRGWTPLHTAAQTGHLEIFEVLLKAGADVNAKNDKRVTPLHLAAALGHLEIVEVLLKAGADVNARDSWGTTPADLAAKYGHGDIAEVLQKAASGPTPTPTTPTPTPTTPTPTPTGSDLGKKLLQAARAGQLDEVRELLKAGADVNAKDAKGLTPLHLAAYHGHLEIVEVLLKAGADVNAKDVYGWTPLHIAAASGHLEIVEVLLKAGADVNAKDALGWTPLHLAASHGHLEIVEVLLKAGADVNAQDKSGKTPADLAARAGHQDIAEVLQKAAGSHHHHHH
As to B3, the “masking window (EC50 difference between active TCE and CD3-PDD NCL), T-cell activation with A431 cells” value in assay [5] was around 200 fold. Moreover, in assay [6], the “T-cell activation EC50 (CD25 on CD8+ T cells), EGFR+ HCT 116 tumor cells and pan T-cells” value was determined as 0.0532 nM; the “T-cell activation EC50 (CD25 on CD8+ T cells), EGFR+++ A431 tumor cells and pan T-cells” value turned out to be 0.679 nM.

B4: CD3-PDD NCL EGFR-C7v122-[NCL1]-06E05v07-6His (designed binder)
chain: B3 chain with I171E, A174K, G265Q, A398W, H410A
Turning to B4, the EC50 in assay [1] was determined as 0.593 nM. For the same molecule, the binding result in assay [7] is given as “no binding”.

B5: anti-EGFR DARPin (biotinylated, monovalent EGFR-specific ankyrin repeat domain) (designed binder)
chain: MGSDLGYKLLRAAFHGQDDEVRILLAAGADVNAKDLIGQTPLHNAAWVGHLEIVEVLLKAGADVNAKDYYGNTPLHLAAHDGHLEIVEVLLKAGADVNAQDTWGETPADLATNAGHEDIAEVLQKAA
modifications: biotinylated (site not stated)
By Kd is commonly meant the concentration at which binding is half-saturated. A word on the koff: it is the first-order rate constant of dissociation. One may read the kon as the rate constant with which the complex forms. As to B5, in [8], the equilibrium dissociation constant (Kd) worked out at 0.47 nM, the koff was found to be 0.0002 s⁻¹ and the kon turned out to be 420000 M⁻¹ s⁻¹. In assay [9], the Kd was 0.49 nM, the koff worked out at 0.00032 s⁻¹ and the kon was 640000 M⁻¹ s⁻¹.

B6: Binder #2 (designed binder)
chain: MRGSHHHHHHGSDLGKKLLQAARAGQLDEVRELLKAGADVNAKDAKGLTPLHLAAYHGHLEIVEVLLKAGADVNAKDVAGWTPLHIAAASGHLEIVEVLLKAGADVNAKDWLGWTPLHLAASHGHLEIVEVLLKAGADVNAQDKSGKTPADLAARAGHQDIAEVLQKAA
modifications: biotinylated for SPR (site not stated)
notes: N-terminal His-tag; also called 06E05v03
Consider B6, for which the Kd in assay [10] came out at 114 nM; in assay [11], 126 nM; in assay [12], 92.4 nM; in assay [13] it was 141 nM. In assay [14], the binding result is recorded as “binds”.

B7: Binder #4 (designed binder)
chain: B6 chain with A79Y, H123A
modifications: biotinylated for SPR (site not stated)
notes: N-terminal His-tag; also called 06E05v07
B7: the Kd in assay [15] was 35.3 nM; in assay [16] it was 41.4 nM; in [17], 27.2 nM; in assay [18] it was 37.5 nM. Also, in [14], the binding result was “binds”.

Values taken from patent publication US20240156980A1 (Molecular Partners, published 2024).
